# T1: VEGF-A 121 (Peprotech), dimeric (human, UniProt P15692-9 27-147)
# T1 construct: also called VEGF121
# T1 sequence (looked up): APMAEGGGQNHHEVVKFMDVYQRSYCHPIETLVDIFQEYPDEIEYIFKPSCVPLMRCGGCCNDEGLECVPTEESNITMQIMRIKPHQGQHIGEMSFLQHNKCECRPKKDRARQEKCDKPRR
# B1: 13.7.40-Ru (antibody, V domains shown)
# VH: QAQLQQPGAELVKPGASVNLSCKASGYTFTNYWIHWVSQRPGQGLEWIGEINPSDGRTYYNEKFKNKVILTVDEASTTAYLQLSSLTSEDSAVYYCTSRYYIYGVDYWGQGTTLTVSS
# VL: SIVMTQTPKFLLVSPGDRVTITCKASQSVGHDVSWYRQKPGQSPKVLIYYASNRYTGVPDRFTGSGYGTDFTFTVRSVRTEDLAVYFCQQDYTSPLTFGTGTKLELKR
# notes: Tested as a ruthenylated conjugate
# Target: T1, VEGF-A 121 (Peprotech), dimeric
# Assay: SPR (Biacore T200), consecutive injections. VEGF-A 121 is displayed by captured rH-4.6.1-IgG (Avastin) and saturated again with rH-4.6.1-IgG. Setup as printed: rH-4.6.1-IgG*VEGF-A*rH4.6.1*Ab1*Ab2
# Experimental: The sample buffer was the system buffer supplemented with 1 mg/ml CMD (Carboxymethyldextran, Sigma #86524). The system operated at 25° C.
binder,measurement,value
B1,binding result,binds

# From patent US20190137523A1 (Hoffmann-La Roche, published 2019)
